From US11976099B2, “Compositions and methods for treatment of bone associated diseases” (THE NATIONAL INSTITUTE FOR BIOTECHNOLOGY IN THE NEGEV LTD., priority 2016, dated 2024)
Several values for one entry are separate records, joined by “and”; a condition that tells them apart may be missing. Equal entries are not always repeated.

B1: 5.6: bispecific M-CSFRGD variant from sort five; M-CSFM loop replaced by XXXRGDXXX motif; binds c-FMS and αvβ3 integrin (protein)
chain: EEVSEYCSHMIGSGHLQSLQRLIDTYPRGDMCSITFEFVDQEQLKDPVCYLKKAFLLVQDIMEDTMRFRDNTPNAIAIVQLQELSLRLKSCFTKDYEEHDKACVRTFYETPLQLLEKVKNVFNETKNLLDKDWNIFSKNCNNSFAECSSQGHERQSEGS
modifications: left off: small tags and cut ends
B2: M-CSFM: 158 amino acid M-CSF with cysteine at position 31 replaced by serine (SEQ ID NO: 2) (protein)
chain: EEVSEYCSHMIGSGHLQSLQRLIDSQMETSSQITFEFVDQEQLKDPVCYLKKAFLLVQDIMEDTMRFRDNTPNAIAIVQLQELSLRLKSCFTKDYEEHDKACVRTFYETPLQLLEKVKNVFNETKNLLDKDWNIFSKNCNNSFAECSSQGHERQSEGS

Tests used:
[1] = test system: CTX-I (carboxy-terminal collagen crosslinks); assay: CTX-I serum ELISA in ovariectomized mice (bone resorption); type: in vivo, C57 Rcc mice; set-up: CTX-I serum-concentration: unit not given here; settings: for CTX-I serum-concentration: 4 days, individual animals, listed as M-CSF 5.6
Procedure: In order to assess the effect of M-CSF variant on bone resorption, 10 weeks old C57 Rcc mice were ovariectomized resulting in a decrease in estrogen secretion similar to what occurs in osteoporosis. Two weeks post-surgery the mice were treated with M-CSF5.6 variant in three concentrations-0.1 mg/kg, 0.5 mg/kg and 15 mg/kg, in order to test the effect on bone resorption and to find the optimal dosage. For a period of 4 days, 0.1 and 0.5 mg/kg M-CSF5.6 treated mice received subcutaneous injections twice a day, while 15 mg/kg M-CSF5.6 treated mice received a daily subcutaneous injection. Mice were sacrificed 18-24 hours after the final injection. The amounts of type I collagen fragments in the blood were measured using CTX-I (carboxy-terminal collagen crosslinks) ELISA.
Animals were randomly divided into 2 control groups (SHAM, PBS) and 4 treatment groups (0.1, 0.5 and 15 mg/kg M-CSF5.6 and 0.1 mg/kg Alendronate as positive control). Except for the SHAM group, all animals were ovariectomized. *, ^, + represent a Haemolytic-serum sample, an unsuccessful ovariectomy procedure (as determined post mortem) and an outlier, respectively. CTX-I serum-concentration values of mice with unsuccessful ovariectomy were excluded from the analysis.

αvβ3 integrin = αvβ3 integrin (Homo sapiens, UniProt P05106+P06756); assay: SPR binding of purified proteins to αvβ3 integrin; settings: proteins immobilized; integrin 0-200 nM; equilibrium
Procedure: Determination of binding of the soluble purified proteins (M-CSFM and M-CSFRGD variants) to c-FMS and αvβ3 integrin was performed on a ProteOn XPR36 (Bio-Rad, USA). […] Unbound esters were deactivated with 1 M ethanolamine HCl at pH 8.5, and the temperature was set at 25° C. Then, the chip was rotated, and the human c-FMS soluble proteins (Sino Biological, China) were allowed to flow over the chip at 6 different concentrations (0, 12.5, 25, 50, 100 and 200 nM) at a flow rate of 50 μl/min for 490 s, followed by dissociation for 600 s in PBS+0.005% Tween (PBST). For determining αvβ3 integrin binding, the chip was regenerated using 50 mM NaOH at a flow rate of 100 μl/min and analyzed again for c-FMS binding to make sure that the chip had been regenerated. After making sure the chip is regenerated, and different concentrations of […] proteins (0, 12.5, 25, 50, 100 and 200 nM) were allowed to flow over the chip. The interactions obtained were normalized to the initial protein binding RUs to the chip surface. Then, for each concentration, the KD was obtained from the equilibrium binding phase of the sensorgram. To determine the αvβ3 integrin specificity for each M-CSFRGD variant, a new chip was loaded with different RGD binding integrins, as follows: 8.5 μg of α3β1, 8.5 μg of α4β7, 6 μg of α5β1, 8.5 μg of αvβ5, and 8.5 μg of αvβ3 integrin and 3 μg of BSA as a negative control. […]

Sequence of αvβ3 integrin (P06756 31-992 limits assumed): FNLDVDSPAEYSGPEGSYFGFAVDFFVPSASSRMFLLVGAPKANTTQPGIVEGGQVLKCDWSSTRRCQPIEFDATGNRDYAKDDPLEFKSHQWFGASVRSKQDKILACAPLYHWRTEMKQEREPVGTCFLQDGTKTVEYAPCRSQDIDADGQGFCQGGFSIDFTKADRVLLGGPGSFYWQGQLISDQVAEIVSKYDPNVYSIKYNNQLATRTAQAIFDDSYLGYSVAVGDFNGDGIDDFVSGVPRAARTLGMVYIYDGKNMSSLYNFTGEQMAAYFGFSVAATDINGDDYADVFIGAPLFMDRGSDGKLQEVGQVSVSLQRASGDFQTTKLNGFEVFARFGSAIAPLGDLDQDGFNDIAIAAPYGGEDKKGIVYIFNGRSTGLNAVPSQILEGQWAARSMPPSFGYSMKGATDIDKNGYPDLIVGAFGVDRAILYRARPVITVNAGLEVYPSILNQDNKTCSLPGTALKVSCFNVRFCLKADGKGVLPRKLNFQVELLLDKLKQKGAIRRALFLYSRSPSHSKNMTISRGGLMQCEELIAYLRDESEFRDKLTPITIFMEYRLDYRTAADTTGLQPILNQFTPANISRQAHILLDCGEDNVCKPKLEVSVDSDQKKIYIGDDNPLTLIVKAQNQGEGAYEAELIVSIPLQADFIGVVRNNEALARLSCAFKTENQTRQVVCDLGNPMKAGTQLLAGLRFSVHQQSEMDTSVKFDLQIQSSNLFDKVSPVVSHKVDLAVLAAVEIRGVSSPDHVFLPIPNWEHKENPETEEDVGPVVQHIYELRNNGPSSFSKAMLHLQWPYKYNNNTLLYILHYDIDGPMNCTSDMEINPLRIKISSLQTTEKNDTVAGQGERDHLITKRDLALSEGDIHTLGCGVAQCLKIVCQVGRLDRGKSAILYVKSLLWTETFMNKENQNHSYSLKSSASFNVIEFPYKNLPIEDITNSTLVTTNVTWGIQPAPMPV
Sequence of αvβ3 integrin (P05106 27-718 limits assumed): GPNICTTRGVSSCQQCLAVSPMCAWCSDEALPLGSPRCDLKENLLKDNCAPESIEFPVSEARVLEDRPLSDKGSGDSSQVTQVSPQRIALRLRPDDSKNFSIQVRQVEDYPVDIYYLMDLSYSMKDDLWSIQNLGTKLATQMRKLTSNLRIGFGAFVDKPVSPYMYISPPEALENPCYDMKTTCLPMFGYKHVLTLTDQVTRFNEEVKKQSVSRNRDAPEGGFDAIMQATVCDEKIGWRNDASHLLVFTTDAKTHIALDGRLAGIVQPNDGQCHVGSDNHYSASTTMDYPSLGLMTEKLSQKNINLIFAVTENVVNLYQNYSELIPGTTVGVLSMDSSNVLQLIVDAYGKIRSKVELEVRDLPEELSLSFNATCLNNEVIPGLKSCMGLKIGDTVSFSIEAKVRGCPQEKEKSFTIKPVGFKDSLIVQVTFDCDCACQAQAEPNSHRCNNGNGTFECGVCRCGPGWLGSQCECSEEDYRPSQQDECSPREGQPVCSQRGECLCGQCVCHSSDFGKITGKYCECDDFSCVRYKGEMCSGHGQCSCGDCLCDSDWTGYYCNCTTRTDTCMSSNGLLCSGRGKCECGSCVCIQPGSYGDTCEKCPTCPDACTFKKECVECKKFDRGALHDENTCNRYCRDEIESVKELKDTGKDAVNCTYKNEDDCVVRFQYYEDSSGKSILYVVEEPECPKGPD

Molecule | CTX-I serum-concentration ([1]; 0.1 mg/kg s.c. twice a day, * haemolytic) | CTX-I serum-concentration ([1]; 0.5 mg/kg s.c. twice a day, * haemolytic, ^ unsuccessful ovariectomy, + outlier) | decrease in CTX-I levels compared to the PBS treated animals ([1]; 15 mg/kg) [fold] | CTX-I serum-concentration ([1]; 15 mg/kg s.c. daily, ^ unsuccessful ovariectomy, + outlier) | effect on CTX-I levels at lower doses ([1]; 0.1 and 0.5 mg/kg, hemolytic samples included) | KD to αvβ3 integrin (αvβ3 integrin)
B1 | 58.19 and 44.06 and 130.4* and 195.2* and 53.32 and 46.69 | 53.33 and 209.7+ and 47.65*^ and 64.67 and 70.37* and 83.09* | ~2 | 33.94 and 33.49 and 214.7^+ and 46.82 and 30.85 and 40.68 | ineffective | 
B2 |  |  |  |  |  | did not bind
